The source of these data is patent US20180244778A1 (THERAPIX BIOSCIENCES, published 2018).

For assay [1], the target named is T1, human cell-surface CD3 (Cluster of Differentiation 3) on Jurkat cells (human, UniProt P07766 23-207).
T1 construct: whole, on cells; CD3 is a complex of several chains; also called human CD3; CD3 T-cell-surface molecule
Nature of the assay: competition FACS on Jurkat cells; competitor OKT3-PE at 0.02 µg/mL.

In assay [2] the target is T1, human cell-surface CD3 (Cluster of …). The assay can be described thus: direct binding by FACS, dilution series on 3×10^5 Jurkat cells.

Positions count from the first letter of the chain named.

B1: VH2ala/Vκ2 humanized anti-CD3 mAb (antibody, V domains shown)
VH: QVQLVQSGSELKKPGASVKVSCKASGYTFTRYTMHWVRQAPGKGLEWIGYINPSRGYTNYNQKFKDRATITTDKSTSTAYMELSSLRSEDTAVYYCARYYDDHYALDYWGQGTLVTVSS
VL: QIVLTQSPATLSLSPGERATLSCSASSSVSYMNWYQQKPGKAPKRWIYDTSKLASGVPSRFSGSGSGTDYTLTISSLQPEDFATYYCQQWSSNPFTFGGGTKVEIKR
Turning to B1, the IC50 in assay [1] turned out to be 0.045 µg/mL.

B2: VH2ser/Vκ2 humanized anti-CD3 mAb (antibody, V domains shown)
VH: B1 VH with A105S
VL: QIVLTQSPATLSLSPGERATLSCSASSSVSYMNWYQQKPGKAPKRWIYDTSKLASGVPSRFSGSGSGTDYTLTISSLQPEDFATYYCQQWSSNPFTFGGGTKVEIK
notes: Human IgG4 (Ser241Pro) / κ; also called VH2ser/Vκ2 mutant; VH2scr/VK2
As for B2, in assay [1], the IC50 amounted to 0.041 µg/mL.

B3: VH2val/Vκ2 humanized anti-CD3 mAb (antibody, V domains shown)
VH: B1 VH with A105V
VL: B1 VL
For B3, the 50% inhibitory concentration (IC50) in assay [1] is 0.055 µg/mL.

B4: OKT3-PE labeled conjugate (Abcam Cat. No. ab86882) (antibody, mouse IgG2a, V domains shown)
VH: not shown
VL: QIVLTQSPAIMSASPGEKVTMTCSASSSVSYMNWYQQKSGTSPKRWIYDTSKLASGVPAHFRGSGSGTSYSLTISGMEAEDAATYYCQQWSSNPFTFGSGTKLEINR
modifications: PE (phycoerythrin) conjugate, site not stated
notes: Bought PE conjugate of OKT3; also called labeled OKT3
With B4, the EC50 in assay [2] came out at 0.02 µg/mL.

For orientation: IC50 means the concentration that gives 50% inhibition. Higher therefore signals weaker potency in that assay. The term EC50 denotes the concentration that produces a half-maximal response. A lower EC50 goes with a more potent agent.
